T1: extracellular domain of human CD73 protein, C-terminus polyhistidine-tagged (human, UniProt P21589 27-547)
T1 construct: also the immunogen; also called CD73-ECD; human CD73-ECD
T1 sequence: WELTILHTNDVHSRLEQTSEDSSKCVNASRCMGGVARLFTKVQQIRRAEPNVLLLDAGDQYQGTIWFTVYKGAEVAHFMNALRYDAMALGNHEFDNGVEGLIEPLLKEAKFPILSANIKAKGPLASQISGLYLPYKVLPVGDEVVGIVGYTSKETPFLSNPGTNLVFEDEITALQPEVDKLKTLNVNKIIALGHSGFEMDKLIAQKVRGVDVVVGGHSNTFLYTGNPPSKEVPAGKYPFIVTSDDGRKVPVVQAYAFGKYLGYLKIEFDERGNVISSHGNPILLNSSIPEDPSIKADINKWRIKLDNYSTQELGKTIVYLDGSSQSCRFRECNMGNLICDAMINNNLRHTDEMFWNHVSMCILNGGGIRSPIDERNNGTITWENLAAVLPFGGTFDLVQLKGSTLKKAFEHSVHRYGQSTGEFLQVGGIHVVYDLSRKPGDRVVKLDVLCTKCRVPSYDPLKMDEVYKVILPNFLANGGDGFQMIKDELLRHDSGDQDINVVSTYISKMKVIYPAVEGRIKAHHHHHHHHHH


Columns and labels:
[1] = target: T1, extracellular domain of human CD73 …; assay: ForteBio Octet (the filing calls it SPR), by the method of Example 2 according to the text; sheet prints 'Loading Sample ID: FDYKSD-02-His'; traces labelled 25, 12.5, 6.25, 3.13
[2] = target: T1, extracellular domain of human CD73 …; assay: ELISA on CD73-ECD, 4 µL supernatant of antibody expression, first of two readings; PBS 0.19, 0.18
Description: (§1) The CD73 protein extracellular region (CD73-ECD) was diluted to 1 μg/mL using the coating solution, and an ELISA plate was coated at 100 μL/well at 4° C. overnight. Excess antigens were washed away, and the plate was blocked with 1% BSA at room temperature for 2 hours. Then, 5-fold gradient dilutions of each monoclonal antibody were added at 100 μL/well and incubated at room temperature for 1 hour. Unbound antibodies were washed away, and an appropriate concentration of Staphylococcal protein A labeled with horseradish peroxidase was added at 100 μL/well and incubated at room temperature for 0.5 hours. Unbound secondary antibodies were washed away, and TMB color development solution was added to react for about 15 minutes. 1M HCL was added at 50 µL/well to terminate the color development reaction, and then the absorbance was measured at 450 nm and the data was analyzed.
(§2) CD73 antigen ELISA binding affinity test was performed according to the method of Example 3.

[3] = target: T1, extracellular domain of human CD73 …; assay: ELISA on CD73-ECD, 20 µL supernatant of antibody expression, first of two readings; PBS 0.19, 0.18
Description: as §1, §2

[4] = target: T1, extracellular domain of human CD73 …; assay: ELISA, coated CD73-ECD, method of Example 3
Description: as §1
Based on the above mutants, 5-E11ASCS was designed and prepared, and the CD73 antigen ELISA binding affinity test was performed according to the method of Example 3.

| Binder | koff [1] | kon [1] | ELISA reading (not named on the sheet) [2] | ELISA reading (not named on the sheet) [3] | EC50 [4] |
| --- | --- | --- | --- | --- | --- |
| chimeric nanobody 3-D7 (Fc fusion, Human-alpaca chimeric antibody (VHH on hIgG1 Fc); Only the VHH is tied to the tested molecule; 37-39 exist for 3-D7-FC1/FC2/FC3; also called original antibody 3-D7) VHH: QRQLVESGGGLVQPGGSLRLSCAASGFLLDYYVIGWFRQAPGKEREGVSCISGSDRSTYYADSVKGRFTISRDNAKNTVYLQMNSLKPEDTAVYFCAADPSPVTVQAMCLPRFPVPYWGQGTQVTVST | 0.000588 s⁻¹ | 1.25e+06 M⁻¹ s⁻¹ |  |  |  |
| chimeric nanobody 5-E11 (Fc fusion, Human-alpaca chimeric antibody (VHH on hIgG1 Fc); Only the VHH is tied to the tested molecule; also called original antibody 5-E11) VHH: ALQLVESGGGLVQPGGSLRLSCEVSGFTLDYYNIGWFRQAPGKEREGVSCSSNSGGSTYYADSVKGRFTISRDNAKNTVYLQMNSLKPEDTGVYYCAAYRGWHPSLDARVYDYWGQGTEVTVSS |  |  | 4.23 | 4.19 | 0.05 µg/mL |

Source: patent US20250382376A1 (FUDAN UNIVERSITY, published 2025)
